From US20210163614A1 (GMAX BIOPHARM, published 2021)

T1: human APJ (apelin receptor) (human, UniProt P35414 1-380)
T1 construct: Expressed on the membrane of stably transfected CHO-DHFR- cells; also called hAPJ; APJ receptor
T1 sequence: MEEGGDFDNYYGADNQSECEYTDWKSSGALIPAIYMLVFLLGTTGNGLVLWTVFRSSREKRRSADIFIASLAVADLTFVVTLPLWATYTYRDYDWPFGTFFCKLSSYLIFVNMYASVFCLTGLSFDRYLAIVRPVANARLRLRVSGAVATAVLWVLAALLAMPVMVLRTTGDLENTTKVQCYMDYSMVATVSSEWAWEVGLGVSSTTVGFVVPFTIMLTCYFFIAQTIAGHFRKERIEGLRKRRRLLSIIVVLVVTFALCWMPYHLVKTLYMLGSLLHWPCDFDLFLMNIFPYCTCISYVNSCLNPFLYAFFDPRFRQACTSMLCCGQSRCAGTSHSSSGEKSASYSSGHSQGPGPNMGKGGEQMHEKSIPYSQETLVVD


What was measured:
[1] = biological target: T1, human APJ (apelin receptor); assay: cell-based or functional assay
[2] = biological target: T1, human APJ (apelin receptor); assay: FACS on CHO-DHFR-hAPJ cells, antibody at 500 nM and 4 nM, blank CHO-DHFR- cells as negative control
Protocol: PBS containing EDTA was used to detach and collect 10⁵ CHO-DHFR-hAPJ cells into 1.5 mL EP tubes. The supernatant was removed after centrifugation. The negative control sample was resuspended with a FACS loading buffer (PBS, 2% FBS). For the positive control, 200 μL antibody supernatant with certain concentration was added to resuspend cells and then incubated at room temperature; the cells were then centrifuged at 1500 rpm to remove the supernatant, washed with a FACS loading buffer and centrifuged again. The cells were resuspended followed by addition (200 μL/well) of a FITC labeled goat anti-mouse fluorescent secondary antibody at 1:50 dilution and incubated at room temperature for 30 min in the dark. Supernatant was removed after centrifugation, cells were washed with FACS loading buffer, centrifuged again and resuspended with the loading buffer for analysis.

Row | EC50, reporter gene assay, activation of Elabela/APJ signaling pathway [1] | binding result [2] | Binder
1 | 3.61 nM |  | fusion protein of hAPJ antibody L5H5 and Linker2-Elabela-11 (protein, not shown: a dimerising Fc or GST; large carriers) heavy (part 1 of 2): EIQLVESGGGLVKPGGSLRLSCAASGFTFSSYAMSWVRQAPGKGLEWVASISSGGSIYLPDSLKGRFTISRDNAKNSLYLQMNSLRAEDTAVYYCTRGRGNSSAWFAYWGQGTLVTVSS heavy (part 2 of 2): GGGGSGGGGSCMPLHSRVPFP light: DVLMTQSPLSLPVTLGQPASISCRSDQSLVHRTGNTHLDWYQQRPGQSPRLLIYKVSNRFSGVPDRFSGSGSGTDFTLKISRVEAEDVGVYYCFQASHIPFTFGQGTKVEIKR
2 | 2.55 nM |  | fusion protein of hAPJ antibody L5H5 and Linker2-EA5 (protein, not shown: a dimerising Fc or GST; large carriers) heavy (part 1 of 2): EIQLVESGGGLVKPGGSLRLSCAASGFTFSSYAMSWVRQAPGKGLEWVASISSGGSIYLPDSLKGRFTISRDNAKNSLYLQMNSLRAEDTAVYYCTRGRGNSSAWFAYWGQGTLVTVSS heavy (part 2 of 2): GGGGSGGGGSQRRCMPLHSRVPAP light: DVLMTQSPLSLPVTLGQPASISCRSDQSLVHRTGNTHLDWYQQRPGQSPRLLIYKVSNRFSGVPDRFSGSGSGTDFTLKISRVEAEDVGVYYCFQASHIPFTFGQGTKVEIKR
3 | 20.3 nM |  | fusion protein of hAPJ antibody L5H5 and Linker2-EA3 (protein, not shown: a dimerising Fc or GST; large carriers) heavy (part 1 of 2): EIQLVESGGGLVKPGGSLRLSCAASGFTFSSYAMSWVRQAPGKGLEWVASISSGGSIYLPDSLKGRFTISRDNAKNSLYLQMNSLRAEDTAVYYCTRGRGNSSAWFAYWGQGTLVTVSS heavy (part 2 of 2): GGGGSGGGGSQRRCMPLHSRVPMPF light: DVLMTQSPLSLPVTLGQPASISCRSDQSLVHRTGNTHLDWYQQRPGQSPRLLIYKVSNRFSGVPDRFSGSGSGTDFTLKISRVEAEDVGVYYCFQASHIPFTFGQGTKVEIKR
4 |  | binds | hAPJ antibody L4H4 (antibody, V domains shown, also called mouse ascites antibody L4H4) VH: EIKLVESGGGLVKPRGSLKLSCAASGFTFSSYAMSWVRQTPEKRLEWVASISSGGSIYLPDSLKGRFTISRDNAWNILYLQMNSLKSEDTAMYYCTRGRGNSSAWFAYWGQGTLVTVSA VL: DVLMTQTPLSLPVSLGDQASISCRSDQSLVHRTGNTHLDWYLQKPGQSPKLLIYKVSNRFSGVPDRFSGSGSGTDFTLKISRVEAEDLGVYYCFQASHIPFTFGSGTKLEIKR
5 | 4.95 nM |  | fusion protein of hAPJ antibody L5H5 and Linker2-EA1 (protein, not shown: a dimerising Fc or GST; large carriers) heavy (part 1 of 2): EIQLVESGGGLVKPGGSLRLSCAASGFTFSSYAMSWVRQAPGKGLEWVASISSGGSIYLPDSLKGRFTISRDNAKNSLYLQMNSLRAEDTAVYYCTRGRGNSSAWFAYWGQGTLVTVSS heavy (part 2 of 2): GGGGSGGGGSQRPRLHSRVPFP light: DVLMTQSPLSLPVTLGQPASISCRSDQSLVHRTGNTHLDWYQQRPGQSPRLLIYKVSNRFSGVPDRFSGSGSGTDFTLKISRVEAEDVGVYYCFQASHIPFTFGQGTKVEIKR
6 | 2.16 nM |  | fusion protein of hAPJ antibody L5H5 and Linker2-EA2 (protein, not shown: a dimerising Fc or GST; large carriers) heavy (part 1 of 2): EIQLVESGGGLVKPGGSLRLSCAASGFTFSSYAMSWVRQAPGKGLEWVASISSGGSIYLPDSLKGRFTISRDNAKNSLYLQMNSLRAEDTAVYYCTRGRGNSSAWFAYWGQGTLVTVSS heavy (part 2 of 2): GGGGSGGGGSQRPRLSHKGPFP light: DVLMTQSPLSLPVTLGQPASISCRSDQSLVHRTGNTHLDWYQQRPGQSPRLLIYKVSNRFSGVPDRFSGSGSGTDFTLKISRVEAEDVGVYYCFQASHIPFTFGQGTKVEIKR
7 | 5.4 nM |  | fusion protein of hAPJ antibody L5H5 and Linker2-EA4 (protein, not shown: a dimerising Fc or GST; large carriers) heavy (part 1 of 2): EIQLVESGGGLVKPGGSLRLSCAASGFTFSSYAMSWVRQAPGKGLEWVASISSGGSIYLPDSLKGRFTISRDNAKNSLYLQMNSLRAEDTAVYYCTRGRGNSSAWFAYWGQGTLVTVSS heavy (part 2 of 2): GGGGSGGGGSQRRCLSHKGPMPF light: DVLMTQSPLSLPVTLGQPASISCRSDQSLVHRTGNTHLDWYQQRPGQSPRLLIYKVSNRFSGVPDRFSGSGSGTDFTLKISRVEAEDVGVYYCFQASHIPFTFGQGTKVEIKR
8 |  | binds | hAPJ antibody L1H1 (antibody, V domains shown, also called mouse ascites antibody L1H1) VH: EVQLIETGGGLVQPTGSLQLSCAASGFPFNINAMNWVRQAPGKGLEWVARIRSKSNNYATYYADSVKDRFTISRDDSQSILYLQMNNLKTEDSAMYFCVRGPYLYAMDYWGQGTSVTVSS VL: DIQMNQSPSSLSASLGDTITITCHASQNIHVWLSWYQQKPGNIPKLLIYKASNLHTGVPSRFSGSGSGTGFTLTISSLQPEDIATYYCQQGHSYPLTFGGGTKLEIKR
